Measured values published in US20050262592.

Tested on: duckweed-produced human microplasminogen
Sequence (chain, as listed by the source): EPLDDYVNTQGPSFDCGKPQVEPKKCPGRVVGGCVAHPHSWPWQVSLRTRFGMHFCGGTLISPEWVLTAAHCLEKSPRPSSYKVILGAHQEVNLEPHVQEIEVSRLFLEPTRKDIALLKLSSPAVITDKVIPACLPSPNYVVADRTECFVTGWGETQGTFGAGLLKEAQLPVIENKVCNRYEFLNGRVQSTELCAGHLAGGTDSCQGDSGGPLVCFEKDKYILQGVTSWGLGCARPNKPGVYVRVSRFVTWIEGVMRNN

urokinase
Western blot: production of the B chain of plasmin: Western blot analysis confirmed the production of the B chain of plasmin following activation of duckweed-produced microplasminogen with either urokinase or tPA
